Results: US20130336983A1 (TRUSTEES OF DARTMOUTH COLLEGE, published 2013)

Target: the molecule itself
Test: NMR spectroscopy of the 20-mer

LHHILMHLTEKAQEVTRKYQ [20-mer representing residues 120-139 of S14 domain III]
binding result: binds
